Numbering of substitutions follows the chain as printed. Ends that are not written are not given here.
T1: TPOR/4Rα hybrid receptor (fusion of the hTPOR extracellular domain and the intracellular 4Rα domain from … (human, UniProt P40238 26-491; P24394 257-825, limits assumed)
T1 sequence (looked up): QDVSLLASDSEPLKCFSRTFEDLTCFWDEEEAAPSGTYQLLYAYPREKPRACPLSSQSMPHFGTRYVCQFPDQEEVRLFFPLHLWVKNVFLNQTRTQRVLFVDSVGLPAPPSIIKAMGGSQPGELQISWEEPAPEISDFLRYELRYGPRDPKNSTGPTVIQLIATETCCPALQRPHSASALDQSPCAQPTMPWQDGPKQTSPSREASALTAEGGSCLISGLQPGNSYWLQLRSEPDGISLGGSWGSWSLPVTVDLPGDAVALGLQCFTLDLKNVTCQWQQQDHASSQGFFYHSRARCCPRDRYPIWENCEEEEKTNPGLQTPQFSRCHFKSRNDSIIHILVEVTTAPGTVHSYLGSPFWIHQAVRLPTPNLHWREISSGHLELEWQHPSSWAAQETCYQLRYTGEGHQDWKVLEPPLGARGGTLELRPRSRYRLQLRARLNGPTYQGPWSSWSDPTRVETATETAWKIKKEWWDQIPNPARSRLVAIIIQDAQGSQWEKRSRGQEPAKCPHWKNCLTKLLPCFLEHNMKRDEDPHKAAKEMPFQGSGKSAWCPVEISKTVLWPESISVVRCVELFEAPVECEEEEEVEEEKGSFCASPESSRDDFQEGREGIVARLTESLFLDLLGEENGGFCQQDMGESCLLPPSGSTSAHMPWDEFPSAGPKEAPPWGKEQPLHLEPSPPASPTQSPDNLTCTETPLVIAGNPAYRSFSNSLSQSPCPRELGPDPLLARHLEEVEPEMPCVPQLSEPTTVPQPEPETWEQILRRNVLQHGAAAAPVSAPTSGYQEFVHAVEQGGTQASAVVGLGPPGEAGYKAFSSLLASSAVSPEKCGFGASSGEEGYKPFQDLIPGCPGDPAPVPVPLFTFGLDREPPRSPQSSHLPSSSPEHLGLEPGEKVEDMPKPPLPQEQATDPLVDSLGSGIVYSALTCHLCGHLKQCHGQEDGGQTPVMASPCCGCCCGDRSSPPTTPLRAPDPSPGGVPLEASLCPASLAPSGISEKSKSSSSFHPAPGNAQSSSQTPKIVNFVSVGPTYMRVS

B1: dimeric SE-ET-TP-020 (DSS-crosslinked dimer) (designed binder)
chain: GCIEGPTLRQWLAARACKQDSDCLAGCVCGPNGFCGS
modifications: cysteine pairing not given here; also: DSS-crosslinked dimer, crosslink site not given here
B2: dimeric SE-AG-TP-040 (DSS-crosslinked dimer) (designed binder)
chain: GCVRLHESCLGQQVPCCDPAATCGGTALAIEGPTLRQWLAARACKGS
modifications: cysteine pairing not given here; also: dimer crosslinked by DSS, site of crosslink not given here
B3: dimeric SE-AG-TP-050 (DSS-crosslinked dimer) (designed binder)
chain: B2 chain with A27C, A40C
modifications: cysteine pairing not given here; also: dimer crosslinked by DSS, site of crosslink not given here
B4: dimeric SE-ET-TP-030 (DSS-crosslinked dimer) (designed binder)
chain: GCIEGPTLRQWLAACKQDSDCLAGCVCGPNGFCGS
modifications: cysteine pairing not given here; also: DSS-crosslinked dimer, crosslink site not given here

Molecular target: T1, TPOR/4Rα hybrid receptor (fusion of the …)
Experiment: cell-based or functional assay

| Binder | Agonist EC50[nM] (Ba/F3 luciferase reporter assay) |
| --- | --- |
| B1 | 1.4 |
| B2 | ~2 |
| B3 | 2.5 |
| B4 | 2.5 |

Source: US20090156476A1 (NASCACELL TECHNOLOGIES, published 2009)
